{
  "source": "paper PMC4833948",
  "key": {"[1]": {"biological_target": "hNHE1cdt D1D2-(AXA)2 (human) (UniProt P19634)"}, "hNHE1cdt F1-A (human)": {"biological_target": "hNHE1cdt F1-A (human) (UniProt P19634)"}, "hNHE1cdt F2-AA (human)": {"biological_target": "hNHE1cdt F2-AA (human) (UniProt P19634)"}, "hNHE1cdt D3-AXA (human)": {"biological_target": "hNHE1cdt D3-AXA (human) (UniProt P19634)"}, "[2]": {"biological_target": "human NHE1 C-terminal distal tail, M + I680-Q815 (hNHE1cdt WT) (human) (UniProt P19634)"}},
  "data": [
    {"substance": "active ERK2 (aERK2) (from UniProt P28482 1-360) (enzyme)", "values": [
      {"measurement": "k app of phosphorylation of S693 of hNHE1cdt by aERK2 (time-resolved NMR, 25 °C)", "setting": "[1]", "result": 0.319, "unit": "h⁻¹"},
      {"measurement": "k app of phosphorylation of S723/S726 of hNHE1cdt by aERK2 (decrease of the S723 peak; time-resolved NMR, 25 °C)", "setting": "[1]", "result": 0.061, "unit": "h⁻¹"},
      {"measurement": "k app of phosphorylation of S771 of hNHE1cdt by aERK2 (time-resolved NMR, 25 °C)", "setting": "[1]", "result": 0.0066, "unit": "h⁻¹"},
      {"measurement": "k app of phosphorylation of S785 of hNHE1cdt by aERK2 (time-resolved NMR, 25 °C)", "setting": "[1]", "result": 0.0302, "unit": "h⁻¹"},
      {"measurement": "k app of phosphorylation of T779 of hNHE1cdt by aERK2 (time-resolved NMR, 25 °C)", "setting": "[1]", "result": 0.157, "unit": "h⁻¹"},
      {"measurement": "k app of phosphorylation of S693 of hNHE1cdt by aERK2 (time-resolved NMR, 25 °C)", "setting": "hNHE1cdt F1-A (human)", "result": 0.3, "unit": "h⁻¹"},
      {"measurement": "k app of phosphorylation of S723/S726 of hNHE1cdt by aERK2 (decrease of the S723 peak; time-resolved NMR, 25 °C)", "setting": "hNHE1cdt F1-A (human)", "result": 0.0741, "unit": "h⁻¹"},
      {"measurement": "k app of phosphorylation of S771 of hNHE1cdt by aERK2 (time-resolved NMR, 25 °C)", "setting": "hNHE1cdt F1-A (human)", "result": 0.0047, "unit": "h⁻¹"},
      {"measurement": "k app of phosphorylation of S785 of hNHE1cdt by aERK2 (time-resolved NMR, 25 °C)", "setting": "hNHE1cdt F1-A (human)", "result": 0.0088, "unit": "h⁻¹"},
      {"measurement": "k app of phosphorylation of T779 of hNHE1cdt by aERK2 (time-resolved NMR, 25 °C)", "setting": "hNHE1cdt F1-A (human)", "result": 0.147, "unit": "h⁻¹"},
      {"measurement": "k app of phosphorylation of S693 of hNHE1cdt by aERK2 (time-resolved NMR, 25 °C)", "setting": "hNHE1cdt F2-AA (human)", "result": 0.444, "unit": "h⁻¹"},
      {"measurement": "k app of phosphorylation of S723/S726 of hNHE1cdt by aERK2 (decrease of the S723 peak; time-resolved NMR, 25 °C)", "setting": "hNHE1cdt F2-AA (human)", "result": 0.127, "unit": "h⁻¹"},
      {"measurement": "k app of phosphorylation of S771 of hNHE1cdt by aERK2 (time-resolved NMR, 25 °C)", "setting": "hNHE1cdt F2-AA (human)", "result": 0.0088, "unit": "h⁻¹"},
      {"measurement": "k app of phosphorylation of S785 of hNHE1cdt by aERK2 (time-resolved NMR, 25 °C)", "setting": "hNHE1cdt F2-AA (human)", "result": 0.012, "unit": "h⁻¹"},
      {"measurement": "k app of phosphorylation of T779 of hNHE1cdt by aERK2 (time-resolved NMR, 25 °C)", "setting": "hNHE1cdt F2-AA (human)", "result": 0.144, "unit": "h⁻¹"},
      {"measurement": "k app of phosphorylation of S693 of hNHE1cdt by aERK2 (time-resolved NMR, 25 °C)", "setting": "hNHE1cdt D3-AXA (human)", "result": 0.349, "unit": "h⁻¹"},
      {"measurement": "k app of phosphorylation of S723/S726 of hNHE1cdt by aERK2 (decrease of the S723 peak; time-resolved NMR, 25 °C)", "setting": "hNHE1cdt D3-AXA (human)", "result": 0.0592, "unit": "h⁻¹"},
      {"measurement": "k app of phosphorylation of S771 of hNHE1cdt by aERK2 (time-resolved NMR, 25 °C)", "setting": "hNHE1cdt D3-AXA (human)", "result": 0.007, "unit": "h⁻¹"},
      {"measurement": "k app of phosphorylation of S785 of hNHE1cdt by aERK2 (time-resolved NMR, 25 °C)", "setting": "hNHE1cdt D3-AXA (human)", "result": 0.0325, "unit": "h⁻¹"},
      {"measurement": "k app of phosphorylation of T779 of hNHE1cdt by aERK2 (time-resolved NMR, 25 °C)", "setting": "hNHE1cdt D3-AXA (human)", "result": 0.141, "unit": "h⁻¹"},
      {"measurement": "k app of phosphorylation of S693 of hNHE1cdt by aERK2 (time-resolved NMR, 25 °C)", "setting": "[2]", "result": 0.349, "unit": "h⁻¹"},
      {"measurement": "k app of phosphorylation of S723/S726 of hNHE1cdt by aERK2 (decrease of the S723 peak; time-resolved NMR, 25 °C)", "setting": "[2]", "result": 0.0821, "unit": "h⁻¹"},
      {"measurement": "k app of phosphorylation of S771 of hNHE1cdt by aERK2 (time-resolved NMR, 25 °C)", "setting": "[2]", "result": 0.0088, "unit": "h⁻¹"},
      {"measurement": "k app of phosphorylation of S785 of hNHE1cdt by aERK2 (time-resolved NMR, 25 °C)", "setting": "[2]", "result": 0.0305, "unit": "h⁻¹"},
      {"measurement": "k app of phosphorylation of T779 of hNHE1cdt by aERK2 (time-resolved NMR, 25 °C)", "setting": "[2]", "result": 0.165, "unit": "h⁻¹"}
    ]}
  ]
}
